The chains are these.
B1: 21A111/1-124 (VHH)
VHH: EVQLVESGGGLVQAGGSLKLSCAVSGRTIVPYTMAWFRQAPGKEREFVAVTRSGGTTFYADSAKGRFTIARDDAKNTVYLQMNSLKPEDTAVYYCALATAYRTNYSSRDKYDYWGQGTQVTVSS
notes: C-term myc-His6 tag
B2: 11A91/1-124 (VHH)
VHH: EAQLVESGGGLVQAGGSLRLSCTASGRTYSTTMGWFRQAPGKEREFVAAIRWSGGSAFYADSVKGRFTISRDNAKNTVYLQMTSLMPEDTAVYYCADTPVYYQRYYDQNAYDYWGQGTQVTVSS
notes: C-term myc-His6 tag
B3: 11B31/1-124 (VHH)
VHH: EVQLVESGGGLVQAGGSLRLSCAASGGAFGVYHMGWFRQAPGKEREFVAAIRSGGTTLYEDSVKGRFTISRDNAKNTVYLRMNSLKPEDTAVYYCATQIYYRTNYYSQNAYDYWGQGTQVTVSS
notes: C-term myc-His6 tag
B4: 14H51/1-124 (VHH)
VHH: EVQLVESGGGLVQAGGSLRLSCAASGGTFGVYTMAWFRQAPGKEREFVAAIRSGATTLYEDSVKGRFTISRDDAKNTVYLRMNSLKPEDTAVYYCAAQIYYRTNYYSQNEYDYWGQGTQVTVSS
notes: C-term myc-His6 tag
B5: 13G81/1-124 (VHH)
VHH: EVQLVESGGGLVQAGGSLRLSCAASGGTFGVYHMGWFRQAPGKEREFVAVIRSGGTTLYADSVKGRFTISRDDAKNTVYLQMNSLKPEDTAVYLCAAQIYYRTNYYSQNNYDYWGQGTQVTVSS
notes: C-term myc-His6 tag
B6: 21A53/1-124 (VHH)
VHH: EVQLVESGGGLVQAGGSLELSCAASGGAFGVYHMGWFRQAPGKEREFVAAIRSGGTTLYEDSVKGRVTISRDDAKNTVYLRMNSLKPEDTAVYYCAAQIYYRTNYYSQNVYDYWGQGTQVTVSS
notes: C-term myc-His6 tag
B7: 21A21/1-124 (VHH)
VHH: EVQLVESGGGLVQAGGSLRLSCAASGGTFGVYHMGWFRQAPGTEREFVAVIRSGGTTLYEDSVKGRFTISRDNAKNTVYLRMNSLKPEDTAVYYCAAQIYYRTNYSSQSNYDYWGQGTQVTVSS
notes: C-term myc-His6 tag
B8: 22B910/1-121 (VHH)
VHH: EVQLVESGGGLVQPGGSLPLSCAASGSIFRMNDMGWYRQAPGKQRERVATLTSAGNTNYADSVKGRFTISGDDARNTVYLQMNSLNPEDTAVYYCNAKVVVAVEGAKYDYWGQGTQVTVSS
notes: C-term myc-His6 tag
B9: 11A71A/1-116 (VHH)
VHH: EVQLVESGGGLVQPGGSLRLSCAASGNIDGIITMGWYRQRPGKPREWVGTINSGGDTNYAGSVKGRFTIARDDAKNTMYLQMNGMKPEDTAVYYCKMNRAGIYEYWGQGTQVTVSS
notes: C-term myc-His6 tag
B10: 13G71/1-124 (VHH)
VHH: EVQLVESGGGLVQAGGSLRLSCAASGRAFSSYAMGWFRQAPGKERDFVAAITSSGSTNYADSVKGRFTISRDNAKNTVYLQMNSLKPEDTAVYYCGARVNYAAYSRLEHDYHYWGQGTQVTVSS
notes: C-term myc-His6 tag
B11: 21A61/1-125 (VHH)
VHH: EVQLVESGGGLVQAGDSLRLSCVASGDSFNTYTMGWFRQAPGKEREFVAAIRWSGGTTFYGDSVKGRFTISRDYAKNTWYLQMNTLKPEDTAAYYCAAVATYSRNVGSVRNYDYWGQGTQVTVSS
notes: C-term myc-His6 tag
B12: 11B42/1-123 (VHH)
VHH: EVQLVESGGGLVQAGDSLRLSCAASGFTFSNHIMGWFRQAPGKERELIAHITWNGGSTYYADSVKGRFAISRDNALNTVYLQMNSLKPEDTAVYYCAARPSYSTNNVKSYRYWGQGTQVTVSS
notes: C-term myc-His6 tag
B13: 22B101/1-123 (VHH)
VHH: EVQLVESGGGLVQTGGSLRLSCAASGPTFSDYAIGWFRQAPGKEREFVAAISSSGISTIYGDSVKGRFDISRDNAKNTVYLQMNRLKPEDTAVYYCAARLFMATPNQGQYYYWGQGTQVTVSS
notes: C-term myc-His6 tag
B14: 14H12/1-125 (VHH)
VHH: EVQLVESGGGLVQAGGSLRLSCIASERTFSSAGVGWFRQAPGKERDFVAAISWNGVTIYYADSVKGRFTISRDNAKNTVYLQMNSLKPEDTAVYYCAARINYSVLTTTSSSYHYWGQGTQVTVSS
notes: C-term myc-His6 tag
B15: 13G93/1-123 (VHH)
VHH: EVQLVESGGGLAQAGDSLRLSCVDSGSSFSAYAMGWFRQAPGKEREFVAAVSWDGRNTYYADSVKGRFTISRDNAKNTLYLQTTSLRPEDTGVYYCAEDKQSGVSVNPKYAYWGQGTQVTVSS
notes: C-term myc-His6 tag
B16: 13G74/1-125 (VHH)
VHH: EVQLVESGGGLVQAGGSLRLSCATSGRTFSTYASMGWFRQTPGKEREFVAAITSSGSTNYADSVKGRFTISRDNAKNTVYLQMNSLKPEDTAVYYCGARVNYAAYSRLEHDYHYWGQGTQVTVSS
notes: C-term myc-His6 tag
B17: 22B1212/1-122 (VHH)
VHH: EVQLVESGGGLVQPGGSLRLSCAASGFTFSSYAMSWVRQAPGKGLEWVSAINSGGGSTSYADSVKGRFTISRDNAKNTLYLQMNSLKPEDTAVYYCAKYLSFYSDYEVYDYWGQGTQVTVSS
notes: C-term myc-His6 tag
B18: 21A92/1-127 (VHH)
VHH: EVQLVESGGGQVQAGGSLRLSCTESGRAFNTRAMGWFRQAPEKEREFVAGITMSGFNTRYADSVKGRFTISRDNAKGTVYLQMSSLKPEDTAVYYCAADSITDRRSVAVAHTSYYYWGQGTQVTVSS
notes: C-term myc-His6 tag
B19: 13G101/1-123 (VHH)
VHH: EVQLVESGGGLVQPGDSLRLSCSASEGTLSRSRVAWFRQAPGKEREFVTVISGVGTSYADSVKGRFTISRDDAKNTVYLQMNSLKAEDTAIYYCAADFRSTWLSSSGSSYTYWGQGTQVTVSS
notes: C-term myc-His6 tag
B20: 11A111/1-126 (VHH)
VHH: EVQLVESGGGLVQAGGSLGLSCAAAGRTFSSSLMGWFRQAPGKEREFVAAITDNGGSTYYADSVKGRFTISRDNAKNSVYLQMNSLKPEDTAIYYCAARRSGYYSLSTSPHQYAYWGQGTQVTVSS
notes: C-term myc-His6 tag
B21: 11A31/1-120 (VHH)
VHH: EVQLVESGGGLVQAGGSLRLSCAASGGTFSSGVMAWFRQSPGEEREFLALITRNGETKKTADSVKGRFTISRDNAKNGVSLQMDSLKAEDTAVYYCASDPTYGSGRWTYWGQGTQVTVSS
notes: C-term myc-His6 tag
B22: 13G41/1-121 (VHH)
VHH: EVQLVESGGGLVQPGGSLTLSCVGSGRRFSADVMGWYRQAPGKQREFVASISSGSAINYADSVKGRFTVSRDNAQNTVYLQMNSLKIEDTGVYYCNARRIVNVEGAYRDYWGQGTQVTVSS
notes: C-term myc-His6 tag
B23: 13G72/1-118 (VHH)
VHH: EVQLVESGGGLVQAGGSLRLSCAASGRAFSSYAMGWFRQAPGKERDFVAAITSSGSTNYADSVKGRFTISRDNAKNTVYLQMNSLKPEDTAVYYCAAKYYSYYAYDYWGQGTQVTVSS
notes: C-term myc-His6 tag
B24: 11A13/1-125 (VHH)
VHH: EVQLVESGGGLVQAGDSLRLSCVASGGTFGSYAMGWFRQAPGKEREFVATIDWSGDTAFYADSVKGRFTISRDIANDVVYLQMNSLEPEDTAVYYCARNRQSGVASENLRLYTYWGQGTQVTVSS
notes: C-term myc-His6 tag
B25: 12C61/1-126 (VHH)
VHH: EVQLVESGGGLVQAGGSLRLSCAASGRTFSSNAMAWFRQAPGNERELVSAIGWSGASTYYIDSVEGRFTISRDNAKNTVYLQMNSLKPEDTAVYYCAASRYSGGVATARRSEYHYWGQGTQVTVSS
notes: C-term myc-His6 tag
B26: 12C52/1-118 (VHH)
VHH: EVQLVESGGGLVQAGGSLRLSCAVSGGTFESDTMAWFRQAPGKEREFVARVSWIRTTYYSDSVKGRFTISKDNAKNTVYLQMNSLKPEDTAVYYCAAQTLGRSLYDYWGQGTQVTVSS
notes: C-term myc-His6 tag
B27: 11A121/1-126 (VHH)
VHH: EVQLVESGGGLVQAGGSLRLSCVVSEGTFSSYSMGWFRQAPGKDREFVSAITWNGTRTYYRDSVKGRFTISRDNAKNTVQLQMNSLKPEDTAVYYCAVSQPLNYYTYYDARRYDYWGQGTQVTVSS
notes: C-term myc-His6 tag
B28: 13E81/1-124 (VHH)
VHH: EVQLVESGGGLVQAGGSLRLSCAASGGTFSVYHMAWFRQAPGKEREFVAAIRSSGGLFYALSVSGRFTISRDNAKDTMYLQMNVLKPEDTAVYYCAASPVYYIDYSSQYKYGYWGQGTQVTVSS
notes: C-term myc-His6 tag
B29: 13E111/1-124 (VHH)
VHH: EVQLVESGGGLVQAGSSLRLSCALSGRTFSDYAIGWFRQAPGKEREFVAAISGWSGGTTNYADSVKGRFTISRDNGKNTVDLRMNSLKPEDTAVYYCAARPAVVHTRKESYPYWGQGTQVTVSS
notes: C-term myc-His6 tag
B30: 21A81/1-122 (VHH)
VHH: EVQLVESGGGLAQAGGSLRLSCAVFGRSRYGMAWFRRAPGKEREFVAGIAWNGASIGSADSVRGRFTISRDNSENTVYFEMGSLKPEDTAVYYCAICRISWCAGAESDYGYWGQGTQVTVSS
notes: C-term myc-His6 tag
B31: 22C712/1-123 (VHH)
VHH: EVQLVESGGGLVQAGGSLGLSCAASGRTFSNYAMGWFRQAPGKEREFVAGISWSGGHTFYADSVKGRFTISRDNTKNTVYLQMNSMRPEDTAVYYCAARLSSVAVASTRYDYWGQGTQVTVSS
notes: C-term myc-His6 tag

This assay has as its target T1, recombinant human ErbB2/Fc chimera (human, UniProt P04626 23-652).
T1 construct: bought from R&D Systems; also called rhErbB2-Fc; rhErb2-Fc; Fc part of the bought chimera not given; not described
The assay can be described thus: ELISA, coated ErbB2/Fc. Background: In an ELISA, binding on a coated surface is turned into a signal by an enzyme label.
On to B1, for which the binding result is listed as “binds”. For B2 the value was “binds”; for B3, “binds”; for B4, “binds”. For B5 the value was “binds”; for B6, “binds”; for B7, “binds”. For B8 the value was “binds”; for B9, “binds”. For B10, the binding result is given as “binds”.

Take B11: the binding result is reported as “binds”. For B12 the value was “binds”. For B13 the value was “binds”. For B14 the value was “binds”; for B15, “binds”; for B16, “binds”. Regarding B17, the binding result is reported as “binds”. In the case of B18, the binding result is “binds”. With B19, the binding result is given as “binds”. Then B20, with “binds”; and B21, with “binds”. For B22 the value was “binds”; for B23, “binds”. For B24 the value was “binds”; for B25, “binds”; for B26, “binds”.

Take B27: the binding result was “binds”. Turning to B28, the binding result was “binds”.

In the case of B29, the binding result is “binds”. Then B30, with “binds”; and B31, with “binds”.

These data come from patent US20150232562A1 (Ablynx, published 2015).
